The values that follow come from publication PMC10143992, “Interkingdom Signaling of the Insect Pathogen Photorhabdus luminescens with Plants Via the LuxR solo SdiA” (Microorganisms, 2023).

For one series, the target named is T1, SdiA (6His-SdiA) (Photorhabdus laumondii, UniProt Q7N9K5).
T1 construct: gene plu0320
The experiment in a line: nanoDSF thermal shift (intrinsic Trp fluorescence […] nm). It counts as binding. Particulars: 10 nM ligand; 0.3 mg/mL SdiA; 1.5 °C/min; versus solvent control. Background: Differential scanning fluorimetry follows unfolding on heating by fluorescence.

The test system of series [1] is T2, SdiA (LuxR solo, 6His-SdiA) (Photorhabdus luminescens DJC), ORF:60ed44fe.
T2 sequence: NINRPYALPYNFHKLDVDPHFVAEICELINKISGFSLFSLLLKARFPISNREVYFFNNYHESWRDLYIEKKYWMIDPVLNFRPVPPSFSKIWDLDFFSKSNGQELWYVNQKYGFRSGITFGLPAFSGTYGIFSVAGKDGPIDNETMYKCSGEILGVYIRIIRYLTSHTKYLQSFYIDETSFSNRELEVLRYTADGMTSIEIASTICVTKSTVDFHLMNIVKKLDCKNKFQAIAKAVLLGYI
The experiment in a line: SPR. To be noted: SPR Biacore T200, SA chip, HBS-EP+ (10 mM HEPES pH 7.4, 150 mM NaCl, 3 mM EDTA, 0.005% Tween-20), SdiA 1.5625-200 nM, 30 uL/min, 1:1 fit; temperature not ….

Series [2] concerns SdiA (LuxR solo, 6His-SdiA) (Photorhabdus luminescens DJC). The experiment in a line: SPR. To be noted: SPR Biacore T200, SA chip, HBS-EP+ (10 mM HEPES pH 7.4, 150 mM NaCl, 3 mM EDTA, 0.005% Tween-20), SdiA 1.5625-200 nM, 30 uL/min, 1:1 fit, temperature not …. (In general: SPR reads the build-up and loss of mass on a sensor chip optically.)

T1 sequence (Q7N9K5 entry or part of it): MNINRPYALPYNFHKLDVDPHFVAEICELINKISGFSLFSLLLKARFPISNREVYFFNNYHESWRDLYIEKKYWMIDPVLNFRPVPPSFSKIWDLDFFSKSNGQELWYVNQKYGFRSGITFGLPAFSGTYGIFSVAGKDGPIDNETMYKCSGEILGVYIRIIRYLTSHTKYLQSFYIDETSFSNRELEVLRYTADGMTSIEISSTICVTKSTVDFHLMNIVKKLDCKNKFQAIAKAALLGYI

For `CCCC(=O)N[C@H]1CCOC1=O` [C4-AHL], the DTM at SdiA (6His-SdiA) was −3.9 °C.
Same read-out and setting: in the case of `CCCCCCCCCCCC(=O)N[C@H]1CCOC1=O` [C12-AHL] it was “+1.6 °C”.
The term Kd denotes the constant that tells how readily two partners part at equilibrium. Low readings indicate a tighter complex, high ones a looser complex. “GACACCTCTTTACATATTTAAACTATTTATTGGGAATCGAAAGGTTATTTTGCTTACTCATTATTATTCTAATAACTTTCTTTTTATATAATTAACTATTAAAGTTGAAACAGCTACTGGGATAAATCATAGTTTATATGGGAAAATTACTCATATATTTATTAGGTATTGCTTCATATAG (double strand) [PaidA promoter fragment]” yielded a dissociation constant Kd in series [1] of 4.4 nM.
As to “GTCATTATTCGCTGTTCACTCATCTTTTAATGGCACAATAAGCCCTGACTTTTTACTTTAATTACCCGCTTTAGATCGAGAGGGCTATGTTAGGGTGGCAGTCTAAAAATATGCCGTATATTACTTTGGGTTAATATGGCATTGAATGGCGTAGGTTATAGGGTGGTTTAACACGAGGTTTTT (double strand) [PfliE promoter fragment]”, the binding result in series [1] is on record as “no binding”.
As for PaidA promoter fragment, the Kd in series [2] (3.3% (v/v) plant root exudate (PRE), ka 8.2e4 /M/s, kd 1.1e-3 /s) was found to be 13.3 nM; in series [2] (no ligand, ka 3.9e5 /M/s, kd printed 1.7 x 103 /s (1.7e-3 from Kd)), 4.4 nM.
For the compound PsdiA promoter fragment, the Kd in series [2] (3.3% (v/v) plant root exudate (PRE), ka 1.8e5 /M/s, kd 2.0e-2 /s) turned out to be 109 nM; in series [2] (no ligand, ka 1.1e5 /M/s, kd 3.1e-3 /s), 27.4 nM.
